Data as given in patent US20050282740.

Target: GST-WW-domain of Pin1 (UniProt Q13526)
Sequence (Q13526 1-54): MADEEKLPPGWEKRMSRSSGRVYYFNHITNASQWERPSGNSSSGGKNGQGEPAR

Cdc25C synthesized in vitro and phosphorylated by Xenopus mitotic extracts
dephosphorylation of precipitated Cdc25C by CIP: CIP failed to dephosphorylate Cdc25C
